Test results: the RNAGym collection of RNA variant scans (doi:10.7554/elife.80360)

B1: CPEB3 Ribozyme (parent)
chain: GGGGGCCACAGCAGAAGCGUUCACGUCGCGGCCCCUGUCAGAUUCUGGUGAAUCUGCGAAUUCUGCUGU

Variants of: B1
Experiment: self-cleavage, relative activity (ratio to wild type); higher = more cleavage; co-transcriptional

| Variant | self-cleavage |
| --- | --- |
| C34U U61C | 0.888 |
| C34U U62C | 0.896 |
| C34U U64A | 0.974 |
| C34U U67A | 1.01 |
| C34U U67C | 1.01 |
| C35A | 0.281 |
| C35A A40C | 0.288 |
| C35A A40G | 0.212 |
| C35A A40U | 0.231 |
| C35A A51U | 0.223 |
| C35A A52U | 0.274 |
| C35A A60U | 0.181 |
| C35A C39A | 0.209 |
| C35A C45A | 0.22 |
| C35A C45G | 0.179 |
| C35A C45U | 0.261 |
| C35A C54G | 0.199 |
| C35A C57A | 0.218 |
| C35A C57G | 0.192 |
| C35A C63G | 0.22 |
| C35A C63U | 0.251 |
| C35A G41C | 0.237 |
| C35A G48A | 0.248 |
| C35A G48C | 0.281 |

| Variant | self-cleavage |
| --- | --- |
| C35A G50A | 0.216 |
| C35A G50C | 0.252 |
| C35A G58A | 0.196 |
| C35A G58C | 0.25 |
| C35A G65C | 0.191 |
| C35A G68A | 0.358 |
| C35A U36A | 0.198 |
| C35A U38G | 0.291 |
| C35A U44A | 0.285 |
| C35A U44G | 0.282 |
| C35A U46C | 0.275 |
| C35A U61C | 0.27 |
| C35A U67A | 0.239 |
| C35A U67G | 0.288 |
| C35A U69G | 0.356 |
| C35G | 0.478 |
| C35G A42C | 0.308 |
| C35G A52G | 0.458 |
| C35G A59C | 0.307 |
| C35G A59G | 0.488 |
| C35G C39G | 0.343 |
| C35G C39U | 0.263 |
| C35G C54A | 0.305 |
| C35G C54U | 0.497 |

| Variant | self-cleavage |
| --- | --- |
| C35G C57U | 0.287 |
| C35G C63G | 0.361 |
| C35G C63U | 0.47 |
| C35G C66G | 0.437 |
| C35G G41A | 0.294 |
| C35G G41C | 0.295 |
| C35G G47A | 0.477 |
| C35G G48C | 0.531 |
| C35G G50C | 0.401 |
| C35G G58A | 0.243 |
| C35G G65A | 0.357 |
| C35G G65C | 0.374 |
| C35G G68U | 0.687 |
| C35G U36A | 0.21 |
| C35G U36C | 0.36 |
| C35G U36G | 0.189 |
| C35G U38C | 0.286 |
| C35G U44G | 0.373 |
| C35G U46A | 0.618 |
| C35G U46G | 0.335 |
| C35G U49A | 0.444 |
| C35G U49G | 0.373 |
| C35G U53A | 0.407 |
| C35G U55A | 0.267 |

| Variant | self-cleavage |
| --- | --- |
| C35G U55C | 0.33 |
| C35G U55G | 0.238 |
| C35G U61C | 0.257 |
| C35G U61G | 0.296 |
| C35G U62C | 0.242 |
| C35G U64A | 0.402 |
| C35G U67C | 0.486 |
| C35U | 0.973 |
| C35U A40C | 0.46 |
| C35U A40U | 0.717 |
| C35U A52C | 1.01 |
| C35U A60C | 0.368 |
| C35U A60G | 0.522 |
| C35U A60U | 0.395 |
| C35U C39U | 0.85 |
| C35U C45A | 0.985 |
| C35U C45U | 0.994 |
| C35U C54G | 0.72 |
| C35U C54U | 0.929 |
| C35U C57G | 0.302 |
| C35U C57U | 0.373 |
| C35U C66G | 0.813 |
| C35U C66U | 0.905 |
| C35U G37C | 0.22 |

| Variant | self-cleavage |
| --- | --- |
| C35U G37U | 0.258 |
| C35U G41A | 0.635 |
| C35U G50U | 0.94 |
| C35U G65C | 0.568 |
| C35U G68A | 0.992 |
| C35U U43G | 0.753 |
| C35U U44G | 0.835 |
| C35U U49A | 0.969 |
| C35U U53C | 0.897 |
| C35U U53G | 0.636 |
| C35U U55A | 0.82 |
| C35U U61C | 0.625 |
| C35U U62C | 0.752 |
| C35U U64G | 0.874 |
| C35U U67A | 0.95 |
| C35U U69A | 0.967 |
| U36A | 0.25 |
| U36A A40U | 0.191 |
| U36A A42G | 0.355 |
| U36A A51G | 0.249 |
| U36A A52C | 0.24 |
| U36A A59U | 0.146 |
| U36A C39G | 0.15 |
| U36A C39U | 0.237 |

| Variant | self-cleavage |
| --- | --- |
| U36A C45U | 0.325 |
| U36A C54A | 0.2 |
| U36A C54G | 0.215 |
| U36A C63A | 0.245 |
| U36A C66G | 0.257 |
| U36A G37A | 0.213 |
| U36A G37C | 0.198 |
| U36A G37U | 0.259 |
| U36A G41A | 0.146 |
| U36A G48A | 0.269 |
| U36A G50U | 0.232 |
| U36A G56A | 0.231 |
| U36A G58A | 0.205 |
| U36A G65A | 0.278 |
| U36A G68U | 0.248 |
| U36A U43C | 0.186 |
| U36A U44A | 0.177 |
| U36A U44G | 0.21 |
| U36A U46C | 0.186 |
| U36A U49C | 0.22 |
| U36A U53C | 0.181 |
| U36A U61A | 0.137 |
| U36A U61G | 0.147 |
| U36A U62C | 0.314 |

| Variant | self-cleavage |
| --- | --- |
| U36A U64C | 0.298 |
| U36A U69G | 0.347 |
| U36C | 0.939 |
| U36C A51G | 0.914 |
| U36C A52G | 0.855 |
| U36C C39A | 0.474 |
| U36C C39U | 0.732 |
| U36C C45U | 0.926 |
| U36C C57U | 0.277 |
| U36C C63U | 0.856 |
| U36C C66U | 0.891 |
| U36C G37A | 0.335 |
| U36C G50A | 0.948 |
| U36C G50U | 0.893 |
| U36C G58A | 0.731 |
| U36C G58C | 0.834 |
| U36C G65U | 0.485 |
| U36C G68U | 1.01 |
| U36C U38A | 0.376 |
| U36C U38C | 0.631 |
| U36C U43G | 0.662 |
| U36C U46G | 0.93 |
| U36C U55A | 0.888 |
